From PMC8136814

Biological target: R3B2 1-273 (RIIID and first dsRBD) (Mucor lusitanicus)
Assay: SEC-MALS

- stoichiometry N: 2
Substance: R3B2 1-273 (RIIID and first dsRBD) (domain or fragment)
